The values below are quoted from earlier work in PMC3208733.

“And” between values parts separate entries of the source, which are not always exact repeats. Identical values can stand only once.

Broadly, the Kd is the concentration at which binding is half-saturated.

This data set has as its target scaffolding protein (Salmonella phage P22) (UniProt P26748).

In the case of “scaffolding protein (from UniProt P26748)”, the Kd is 78 µM and 170 µM.
